Tests used:
[1] = molecular target: T1, oxMIF: recombinant human MIF immobilized into ELISA plates (transforming MIF to oxMIF) (human, UniProt P14174 2-115); assay: ELISA, antibody titrated on plate-immobilized recombinant human MIF (oxMIF), protein L-HRP; EC50 of 4-parameter fit given as KD, mean of two experiments
T1 construct: Same polypeptide as redMIF; differs in conformation (oxMIF isoform); also called immobilized MIF; immobilized oxMIF
Protocol: (§1) Recombinant human MIF diluted in PBS at 1 μg/ml was immobilized into ELISA plates overnight at 4° C. (transforming MIF to oxMIF according to Thiele et al., 2015). After blocking, serial dilutions of anti-oxMIF antibodies were added to the plates. Finally, bound antibodies were detected using a protein L-HRP conjugate and tetramethylbenzidine (TMB) as substrate. The chromogenic reaction was stopped with 3M H₂SO₄ and OD was measured at 450 nm.

[2] = molecular target: T2, Human oxMIF (human recombinant MIF treated with 0.2% Proclin300, oxMIF surrogate) (human, UniProt P14174 2-115, treated with 0.2% Proclin300 (active component 5-chloro-2-methyl-4-isothiazolin-3-one) for 3 h to transform MIF into an oxMIF surrogate); assay: SPR (Biacore 3000), antibody amine-coupled to CM5 chip, Proclin300-treated MIF 50-150 nM as analyte, 1:1 Langmuir with mass transfer; mean of flow cells 2-4, SD +/-0.38 nM
T2 construct: SPR analyte; also called Proclin300 treated MIF; soluble human oxMIF
Protocol: FC1 was used as reference cell and was only reacted with buffers. Mouse or human recombinant MIF were diluted in HBS-EP buffer (GE Healthcare) to concentrations of 50, 75, 100, or 150 nM in the presence of 0.2% Proclin300 (active component 5-chloro-2-methyl-4-isothiazolin-3-one; Sigma) to transform MIF into an oxMIF surrogate (Thiele M et al., 2015) for 3 h at room temperature. Proclin300 treated MIF was applied to immobilized anti-oxMIF antibodies at a flow rate of 30 μl/min for 3 min using a Biacore™ 3000 Instrument (GE Healthcare). Dissociation time was 300 seconds, and the chip was regenerated using 10 mM HCl for 3 minutes. The kinetics of the concentration series were analyzed by local simultaneous association/dissociation fitting of each binding curve after subtraction of background from the reference cell (FC1) using the iterative Langmuir 1:1 interaction model with mass transfer compensation provided by the BiaEvaluation 4.1 software (GE Healthcare). Data are represented as mean+/−SD (standard deviation) of the calculated KD values of Flow Cells 2-4.

[3] = molecular target: T1, oxMIF: recombinant human MIF …; assay: ELISA, antibody titrated on plate-immobilized recombinant human MIF (oxMIF), goat anti-human IgG(Fc)-HRP; EC50 of 4-parameter fit given as KD, two experiments
Protocol: as §1, with “with Goat anti-human IgG(Fc)-HRP” for “using a protein L-HRP”

[4] = molecular target: T1, oxMIF: recombinant human MIF …; assay: ELISA on plate-immobilized recombinant human MIF (oxMIF)
Protocol: as §1

T1 sequence (P14174 2-115 limits assumed): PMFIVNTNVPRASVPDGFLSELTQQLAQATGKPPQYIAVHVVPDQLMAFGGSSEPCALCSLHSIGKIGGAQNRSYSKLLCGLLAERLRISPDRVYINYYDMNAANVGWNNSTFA
T2 sequence (P14174 2-115 limits assumed): as above

| Binder | Kd [1] [nM] | other results |
| --- | --- | --- |
| anti-oxMIF antibody C0008 (control antibody) (antibody, human IgG1, kappa, V domains shown, Human IgG with wt Fc) VH: EVQLLESGGGLVQPGGSLRLSCAASGFTFSIYSMNWVRQAPGKGLEWVSSIGSSGGTTYYADSVKGRFTISRDNSKNTLYLQMNSLRAEDTAVYYCAGSQWLYGMDVWGQGTTVTVSS VL: DIQMTQSPSSLSASVGDRVTITCRSSQRIMTYLNWYQQKPGKAPKLLIFVASHSQSGVPSRFRGSGSETDFTLTISGLQPEDSATYYCQQSFWTPLTFGGGTKVEIKR | 0.7 | Kd [2]: 3.49 nM; Kd [3]: 0.2 nM |
| anti-oxMIF antibody C0073 (antibody, human IgG1, kappa) heavy: not shown light: DIQMTQSPSSLSASVGDRVTITCRSSQRIMTYLNWYQQKPGKAPKLLIYVGSHSQSGVPSRFRGSGSETDFTLTISGLQPEDSATYYCQQSFFTPLTFGGGTKVEIKRTVAAPSVFIFPPSDEQLKSGTASVVCLLNNFYPREAKVQWKVDNALQSGNSQESVTEQDSKDSTYSLSSTLTLSKADYEKHKVYACEVTHQGLSSPVTKSFNRGEC | 1 | – |
| anti-oxMIF antibody C0076 (antibody, human IgG1, kappa, V domains shown) VH: EVQLQESGGGLVQPGGSLRLSCAASGFTFSIYSMNWVRQAPGKGLEWVSSIGSSGGTTYYADSVKGRFTISRDNSKNTLYLQMNSLRAEDTAVYYCAGSQWLYGMDVWGQGTTVTVSS VL: DIQMTQSPSSLSASVGDRVTITCRSSQRIMTYLNWYQQKPGKAPKLLIYVGSHSQSGVPSRFRGSGSETDFTLTISGLQPEDSATYYCQQSFWTPLTFGGGTKVEIKR | 1.1 | – |
| anti-oxMIF antibody C0078 (antibody, human IgG1, kappa) heavy: not shown light: DIQMTQSPSSLSASVGDRVTITCRSSQRIMTYLNWYQQKPGKAPKLLIYVGSHSQSGVPSRFRGSGSETDFTLTISGLQPEDSATYYCQQSFFTPLTFGGGTKVEIKRTVAAPSVFIFPPSDEQLKSGTASVVCLLNNFYPREAKVQWKVDNALQSGNSQESVTEQDSKDSTYSLSSTLTLSKADYEKHKVYACEVTHQGLSSPVTKSFNRGEC | 1.6 | – |
| anti-oxMIF antibody C0083 (antibody, human IgG1, kappa) heavy: not shown light: DIQMTQSPSSLSASVGDRVTITCRSSQRIMTYLNWYQQKPGKAPKLLIYVGSHSQSGVPSRFRGSGSETDFTLTISGLQPEDSATYYCQQSFFTPLTFGGGTKVEIKRTVAAPSVFIFPPSDEQLKSGTASVVCLLNNFYPREAKVQWKVDNALQSGNSQESVTEQDSKDSTYSLSSTLTLSKADYEKHKVYACEVTHQGLSSPVTKSFNRGEC | 0.5 | – |
| anti-oxMIF antibody C0098 (antibody, human IgG1, kappa, Fc mutated to increase effector functions) heavy: EVQLLESGGGLVQPGGSLRLSCAASGFTFSIYSMNWVRQAPGKGLEWVSSIGSSGGTTYYADSVKGRFTISRDNSKNTLYLQMNSLRAEDTAVYYCAGSQWLYGMDVWGQGTTVTVSSASTKGPSVFPLAPSSKSTSGGTAALGCLVKDYFPEPVTVSWNSGALTSGVHTFPAVLQSSGLYSLSSVVTVPSSSLGTQTYICNVNHKPSNTKVDKRVEPKSCDKTHTCPPCPAPELLGGPDVFLFPPKPKDTLMISRTPEVTCVVVDVSFEDPEVKFNWYVDGVEVHNAKTKPREEQYNSTYRVVSVLTVLHQDWLNGKEYKCKVTNKALPAPEEKTISKAKGQPREPQVYTLPPSREEMTKNQVSLTCLVKGFYPSDIAVEWESNGQPENNYKTTPPVLDSDGSFFLYSKLTVDKSRWQQGNVFSCSVMHEALHNHYTQKSLSLSPG light: DIQMTQSPSSLSASVGDRVTITCRSSQRIMTYLNWYQQKPGKAPKLLIYVGSHSQSGVPSRFRGSGSETDFTLTISGLQPEDSATYYCQQSFFTPLTFGGGTKVEIKRTVAAPSVFIFPPSDEQLKSGTASVVCLLNNFYPREAKVQWKVDNALQSGNSQESVTEQDSKDSTYSLSSTLTLSKADYEKHKVYACEVTHQGLSSPVTKSFNRGEC | 0.7 | – |
| anti-oxMIF antibody C0099 (antibody, human IgG1, kappa, Fc mutated to increase effector functions) heavy: EVQLLESGGGLVQPGGSLRLSCAASGFTFSIYSMNWVRQAPGKGLEWVSSIGSSGGTTYYADSVKGRFTISRDNSKNTLYLQMNSLRAEDTAVYYCAGSQWLYGMDVWGQGTTVTVSSASTKGPSVFPLAPSSKSTSGGTAALGCLVKDYFPEPVTVSWNSGALTSGVHTFPAVLQSSGLYSLSSVVTVPSSSLGTQTYICNVNHKPSNTKVDKKVEPKSCDKTHTCPPCPAPELLGGPDVFLFPPKPKDTLMISRTPEVTCVVVDVSHEDPEVQFNWYVDGVEVHNAKTKPREEQFNSTFRVVSVLTVVHQDWLNGKEYKCKVSNKALPAPEEKTISKTKGQPREPQVYTLPPSREEMTKNQVSLTCLVKGFYPSDIAVEWESNGQPENNYKTTPPMLDSDGSFFLYSKLTVDKSRWQQGNVFSCSVMHEALHNHYTQKSLSLSPG light: DIQMTQSPSSLSASVGDRVTITCRSSQRIMTYLNWYQQKPGKAPKLLIYVGSHSQSGVPSRFRGSGSETDFTLTISGLQPEDSATYYCQQSFFTPLTFGGGTKVEIKRTVAAPSVFIFPPSDEQLKSGTASVVCLLNNFYPREAKVQWKVDNALQSGNSQESVTEQDSKDSTYSLSSTLTLSKADYEKHKVYACEVTHQGLSSPVTKSFNRGEC | 0.4 | – |
| anti-oxMIF antibody C0100 (antibody, human IgG1, kappa, Fc mutated to increase effector functions) heavy: EVQLLESGGGLVQPGGSLRLSCAASGFTFSIYSMNWVRQAPGKGLEWVSSIGSSGGTTYYADSVKGRFTISRDNSKNTLYLQMNSLRAEDTAVYYCAGSQWLYGMDVWGQGTTVTVSSASTKGPSVFPLAPSSKSTSGGTAALGCLVKDYFPEPVTVSWNSGALTSGVHTFPAVLQSSGLYSLSSVVTVPSSSLGTQTYICNVNHKPSNTKVDKRVEPKSCDKTHTCPPCPAPELVGGPSVFLLPPKPKDTLMISRTPEVTCVVVDVSHEDPEVKFNWYVDGVEVHNAKTKPPEEQYNSTLRVVSVLTVLHQDWLNGKEYKCKVSNKALPAPIEKTISKAKGQPREPQVYTLPPSRDELTKNQVSLTCLVKGFYPSDIAVEWESNGQPENNYKTTPLVLDSDGSFFLYSKLTVDKSRWQQGNVFSCSVMHEALHNHYTQKSLSLSPG light: DIQMTQSPSSLSASVGDRVTITCRSSQRIMTYLNWYQQKPGKAPKLLIYVGSHSQSGVPSRFRGSGSETDFTLTISGLQPEDSATYYCQQSFFTPLTFGGGTKVEIKRTVAAPSVFIFPPSDEQLKSGTASVVCLLNNFYPREAKVQWKVDNALQSGNSQESVTEQDSKDSTYSLSSTLTLSKADYEKHKVYACEVTHQGLSSPVTKSFNRGEC | 0.5 | – |

More lines, main results first:

| Kd [1] [nM] | Binder | other results |
| --- | --- | --- |
| 5.2 | anti-oxMIF antibody C0077 (antibody, human IgG1, kappa, V domains shown, Differs from C0076 only by Y36F in VL) VH: EVQLQESGGGLVQPGGSLRLSCAASGFTFSIYSMNWVRQAPGKGLEWVSSIGSSGGTTYYADSVKGRFTISRDNSKNTLYLQMNSLRAEDTAVYYCAGSQWLYGMDVWGQGTTVTVSS VL: DIQMTQSPSSLSASVGDRVTITCRSSQRIMTYLNWFQQKPGKAPKLLIYVGSHSQSGVPSRFRGSGSETDFTLTISGLQPEDSATYYCQQSFWTPLTFGGGTKVEIKR | fold reduction in affinity compared to C0076 [4]: 5 fold |
| 0.5 | anti-oxMIF antibody C0090 (antibody, human IgG1, kappa) heavy: not shown light: DIQMTQSPSSLSASVGDRVTITCRSSQRILTYLNWYQQKPGKAPKLLIYVGSHSQSGVPSRFRGSGSETDFTLTISGLQSEDSATYYCQQSFFTPLTFGGGTKVEIKRTVAAPSVFIFPPSDEQLKSGTASVVCLLNNFYPREAKVQWKVDNALQSGNSQESVTEQDSKDSTYSLSSTLTLSKADYEKHKVYACEVTHQGLSSPVTKSFNRGEC | – |
| 0.8 | anti-oxMIF antibody C0097 (antibody, human IgG1, kappa, Fc mutated to increase effector functions) heavy: not shown light: DIQMTQSPSSLSASVGDRVTITCRSSQRIMTYLNWYQQKPGKAPKLLIYVGSHSQSGVPSRFRGSGSETDFTLTISGLQPEDSATYYCQQSFFTPLTFGGGTKVEIKRTVAAPSVFIFPPSDEQLKSGTASVVCLLNNFYPREAKVQWKVDNALQSGNSQESVTEQDSKDSTYSLSSTLTLSKADYEKHKVYACEVTHQGLSSPVTKSFNRGEC | – |
